Assay [1] deals with T1, human DDR2 stably expressed on HEK293 cells (human, UniProt Q16832 22-855).
T1 construct: whole, on cells; also called hDDR2
T1 sequence (looked up): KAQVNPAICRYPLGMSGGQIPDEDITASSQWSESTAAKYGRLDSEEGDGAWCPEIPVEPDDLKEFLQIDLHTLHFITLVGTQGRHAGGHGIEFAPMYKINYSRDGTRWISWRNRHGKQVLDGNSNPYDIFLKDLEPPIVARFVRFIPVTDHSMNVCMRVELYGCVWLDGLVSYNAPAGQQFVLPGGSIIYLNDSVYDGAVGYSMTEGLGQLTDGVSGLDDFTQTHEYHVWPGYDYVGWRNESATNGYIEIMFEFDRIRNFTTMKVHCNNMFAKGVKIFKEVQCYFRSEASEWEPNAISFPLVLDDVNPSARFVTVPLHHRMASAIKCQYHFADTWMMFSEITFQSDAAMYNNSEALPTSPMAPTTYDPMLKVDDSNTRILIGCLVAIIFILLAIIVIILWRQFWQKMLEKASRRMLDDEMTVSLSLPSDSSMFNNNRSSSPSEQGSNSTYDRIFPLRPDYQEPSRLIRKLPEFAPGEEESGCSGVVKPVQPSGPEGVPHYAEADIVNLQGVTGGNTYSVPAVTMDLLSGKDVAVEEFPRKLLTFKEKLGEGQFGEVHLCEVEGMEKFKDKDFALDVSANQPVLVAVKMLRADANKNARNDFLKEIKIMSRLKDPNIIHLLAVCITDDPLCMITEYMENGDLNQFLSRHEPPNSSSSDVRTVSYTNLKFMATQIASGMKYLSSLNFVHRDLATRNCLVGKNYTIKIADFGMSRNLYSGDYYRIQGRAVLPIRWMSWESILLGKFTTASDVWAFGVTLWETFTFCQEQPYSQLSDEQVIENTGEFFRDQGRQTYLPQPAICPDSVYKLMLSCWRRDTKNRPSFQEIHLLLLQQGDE
Kind of assay: flow cytometry, HEK293/hDDR2. The essentials:
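Anti-DDR1 mAbs or isotype controls (2 μg per 1×10⁶ cells) were incubated with the stably transfected HEK293 cells at 4 °C for 1 hr, then detected with anti-IgG-PE at 4 °C for 1 hr. Binding was read as flow-cytometry MFI, with vector-only HEK293 background subtracted.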
In general terms: In flow cytometry, cells or beads pass a laser one at a time.

For assay [2], the target named is T2, human ECD-DDR1-His protein (human, UniProt Q08345 21-416).
T2 construct: also called huDDR1-ECD-His; DDR1ECD-6Xhis; not shown: His tag
Description: ELISA, coated antigen, apparent KD. The essentials:
(§1)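 Plates coated overnight at 4° C with 2 μg/mL purified tagged DDR1 ECD protein, BSA-blocked; serially diluted murine anti-DDR1 mAbs bound 1 hr at room temperature, detected with anti-mouse IgG-HRP and TMB (OD 450). Apparent KD taken as C-parameter of 4-parameter logistic fit of OD versus antibody concentration.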
On the technique in general: ELISA stands for enzyme-linked immunosorbent assay.

In assay [3] the target is T3, DDR1ECD-Fc (R&D Systems, Catalog #2396-DR) (human, UniProt Q08345 21-416).
T3 construct: range 21-416; construct as described for the bought immunogen; also called human ECD-DDR1-Fc; Fc-ECD-DR1; not shown: human IgG1, Pro100-Lys330
Kind of assay: ELISA, coated antigen, apparent KD. In outline: as §1

Assay [4] concerns the target DDR1 endogenously expressed on human cancer cell lines (T47D, HCT-116, A431) (human) (UniProt Q08345). Kind of assay: flow cytometry, HCT116 cells.
For assay [5] the target is unchanged. Description: flow cytometry, T47D cells.
The target in assay [6] is human DDR1 (isoform B) stably expressed on HEK293 cells (human) (UniProt Q08345). Kind of assay: flow cytometry, HEK293/hDDR1.

Among the data in patent US20140086913A1 (Gilead, published 2014) are MFI and Kd values, retold here.

T2 sequence (Q08345 21-416): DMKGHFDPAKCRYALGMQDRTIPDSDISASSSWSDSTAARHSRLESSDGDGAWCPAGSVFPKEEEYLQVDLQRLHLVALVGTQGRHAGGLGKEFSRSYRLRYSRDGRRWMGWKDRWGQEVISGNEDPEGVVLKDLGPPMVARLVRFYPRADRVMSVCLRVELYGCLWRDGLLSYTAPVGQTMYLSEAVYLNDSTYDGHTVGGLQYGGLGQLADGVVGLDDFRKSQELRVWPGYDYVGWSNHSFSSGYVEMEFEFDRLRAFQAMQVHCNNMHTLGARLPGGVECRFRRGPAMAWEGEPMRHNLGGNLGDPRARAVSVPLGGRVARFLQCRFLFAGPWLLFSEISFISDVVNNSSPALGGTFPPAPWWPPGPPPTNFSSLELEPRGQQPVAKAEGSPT
human DDR1 (isoform B) stably expressed on HEK293 cells (human), sequence (Q08345 19-913): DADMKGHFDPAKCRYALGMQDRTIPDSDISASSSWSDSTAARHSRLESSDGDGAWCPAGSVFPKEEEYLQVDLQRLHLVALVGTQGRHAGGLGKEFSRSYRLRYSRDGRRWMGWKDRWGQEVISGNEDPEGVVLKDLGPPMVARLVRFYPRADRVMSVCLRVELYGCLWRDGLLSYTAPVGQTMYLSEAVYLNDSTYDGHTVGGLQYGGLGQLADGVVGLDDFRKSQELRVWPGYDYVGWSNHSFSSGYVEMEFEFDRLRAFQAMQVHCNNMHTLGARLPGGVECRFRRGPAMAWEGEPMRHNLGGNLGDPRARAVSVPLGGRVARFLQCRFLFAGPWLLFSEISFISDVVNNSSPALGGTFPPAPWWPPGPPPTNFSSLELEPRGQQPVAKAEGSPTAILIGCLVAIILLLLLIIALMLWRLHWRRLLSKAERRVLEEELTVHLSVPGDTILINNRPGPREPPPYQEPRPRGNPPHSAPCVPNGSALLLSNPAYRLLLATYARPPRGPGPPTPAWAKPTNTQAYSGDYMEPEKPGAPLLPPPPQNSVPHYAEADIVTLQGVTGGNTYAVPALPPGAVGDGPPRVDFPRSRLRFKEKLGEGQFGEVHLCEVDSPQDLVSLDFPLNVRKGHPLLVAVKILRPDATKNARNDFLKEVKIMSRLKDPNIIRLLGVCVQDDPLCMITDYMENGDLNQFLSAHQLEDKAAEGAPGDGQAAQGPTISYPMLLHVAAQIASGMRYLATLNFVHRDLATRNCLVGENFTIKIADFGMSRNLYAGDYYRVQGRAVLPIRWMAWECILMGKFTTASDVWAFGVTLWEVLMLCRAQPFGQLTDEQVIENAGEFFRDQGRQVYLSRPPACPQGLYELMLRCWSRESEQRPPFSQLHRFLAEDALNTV
T3 sequence (Q08345 other isoform, or with tags, fused parts or gaps limits assumed): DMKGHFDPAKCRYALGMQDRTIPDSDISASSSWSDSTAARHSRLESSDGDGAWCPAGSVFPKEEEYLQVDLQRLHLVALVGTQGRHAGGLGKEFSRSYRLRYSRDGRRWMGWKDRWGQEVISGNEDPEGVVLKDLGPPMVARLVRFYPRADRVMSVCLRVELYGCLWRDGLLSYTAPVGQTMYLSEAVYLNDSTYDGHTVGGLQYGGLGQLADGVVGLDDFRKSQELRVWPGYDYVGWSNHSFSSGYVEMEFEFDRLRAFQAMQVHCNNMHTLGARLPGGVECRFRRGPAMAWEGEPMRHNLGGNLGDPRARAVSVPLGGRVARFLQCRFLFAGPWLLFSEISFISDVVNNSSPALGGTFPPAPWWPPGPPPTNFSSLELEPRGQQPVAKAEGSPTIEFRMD

B1: AB2004 (antibody, V domains shown)
VH: DVHLQESGPDLVKPSQSLSLTCTVTDYSITSGYGWHWIRQFPGNKLEWMGYIHYGGSTKYNSSLKSRISITRDTSKNQFFLQLKSVTTDDTGTYYCATSGNYGFAYWGQGTLVTVSA
VL: DIVLTQSPTSLAVSLGQRATMSCRASESVDDYGTSFMHWYQQKPGQPPKLLIYRASNLESGIPARFSGSGSRADFTLSINPVEPDDVATYYCQQSNEDPFTFGSGTKLEIKR
notes: mouse hybridoma mAb
Turning to B1, the MFI in assay [1] was 289 MFI; in assay [4], 1490 MFI; in assay [5], 5990 MFI; in assay [6], 14400 MFI. Further, the Kd in assay [2] was 0.181 nM; in assay [3], 0.154 nM.

B2: AB2041 (antibody, V domains shown)
VH: QVQLHQSGSELAKPGASVKMSCKASGYIFTTYWIHWLKQRPGQGLEWIGFINPDTDYTEYNQKFKDKATLTADKSSNTAYVQLSSLTSEDSAVYYCARGNYGYDGLVYWGLGTLVTVSA
VL: SIVMTQTPKFLLVSAGDRVTITCKASQSVSTDVAWYQQKPGQSPKLLIYYASNRYTGVPDRFTGSGYGTDFTFTISTVQAEDLAVYFCQQDYNSYTFGGGTKLEIKR
notes: mouse hybridoma mAb
B2: the MFI in assay [1] came to 265 MFI; in assay [4] it was 1270 MFI; in assay [5], 2210 MFI; in assay [6], 12500 MFI. For the same molecule, the Kd was found to be 0.617 nM in assay [2] and 0.561 nM in assay [3].

B3: AB2039 (antibody, V domains shown)
VH: EVQLVESGGGLVQPGGSLKFSCAASGFTFSSYGMSWVRQTPDKRLELVAIINSHGFSTYYPDSVKGRFTISRDNAKNTLYLQMSSLKSEDTAIYYCARGGYGNYGMDYWGQGTSVTVSS
VL: DIVLTQSPASLAVSLGQRATISCRASESVDSYGNSFMHWYQQKVGQPPKLLIFRASNIESGIPARFSGSGSRTDFTLTINSVEADDVATYYCQQSNEAPYTFGGGTKLEIKR
notes: mouse hybridoma mAb; also called AB0039
B3: the MFI in assay [1] is 143 MFI; in assay [4], 1490 MFI; in assay [5], 4460 MFI; in assay [6], 8020 MFI. For the same molecule, the Kd in assay [2] was found to be 0.205 nM; in assay [3], 0.346 nM.

B4: AB2010 (antibody, V domains shown)
VH: QVQLKQSGPGLVQPSQSLSITCTVSGFSFTGYGIHWVRQSPGKGLEWLGVIWSGGITDYNAAFISRLSISMDSSKGQVFFKMNSLQANDTAIYYCARRSTTVVADYAMDYWGQGTSVTVSS
VL: SIVMTQTPKFLLVSAGDRVTITCKASQSVSNDVAWYQQKPGQSPKLLIYYASNRYTGVPDRFTGSGYGTDFTFTINTVQAEDLAVYFCQQDYTSPLTFGAGTKLELKR
notes: mouse hybridoma mAb
Take B4: the MFI in assay [1] amounted to 647 MFI; in assay [4] it was 1730 MFI; in assay [5], 6730 MFI; in assay [6], 17800 MFI. Besides, the Kd in assay [2] was determined as 0.398 nM; in assay [3], 0.431 nM.

B5: AB2092 (antibody, V domains shown)
VH: QIQLVQSGPELKKSGETVKISCKASGYTFTDYGMNWVKQAPGKGLKWMGWINTYTGKSTYADDFKGRFAFSLETSASTTYLQITNLKNEDMATYFCARWADYFGSSYLFASWGQGTLVTVSA
VL: DVLMTQTPLSLPVSLGDQASISCRSSQSIVHSDGNTYLEWYLQKPGQSPKLLIYKVSNRFSGVPDRFSGSGSGTDFTLKISRVEAEDLGIYYCFQGSHVPWTFGGGTKLEIKR
notes: mouse hybridoma mAb
For the molecule B5, the MFI is 133 MFI in assay [1], 1310 MFI in assay [4], 3880 MFI in assay [5] and 6020 MFI in assay [6]. Moreover, the Kd was 0.275 nM in assay [2] and 0.287 nM in assay [3].

B6: AB2078 (antibody, V domains shown)
VH: EIQLQQSGPELVNPGASVKVSCKASGYSFTDYNMYWVKQSHGKSLEWIGYIDPYNGGTSYNQKFKGKATLTVDKSSSTAFMHLNSLTSEDSAVYYCAREYYGSRLWYFDVWGAGTAVTVSS
VL: DIVMTQSPSSLAMSVGQKVTMSCKSSQSLLNRNNQKNYLAWYQQKPGQSPKLLVYFASTRESGVPDRFIGSGSGTDFTLTLSSVRAEDLAENFCQQHYSTPFTFGSGTRLEIKR
notes: mouse hybridoma mAb
For the molecule B6, the MFI in assay [1] came to 380 MFI; in assay [4], 1480 MFI; in assay [5], 4750 MFI; in assay [6], 7490 MFI. For the same molecule, the Kd in assay [2] was 0.554 nM; in assay [3] it was 0.374 nM.
